# “Also recorded” adds a separate entry of the source.
# B1: F7: αPDGFR mutant, Tyr to Phe substitution at 572, 574, 720, 731, 742, 988, and 1018 (protein, UniProt P16234 24-1089, looked up, variant Y572F Y574F Y720F Y731F Y742F Y988F Y1018F)
# Platelet-derived growth …: QLSLPSILPNENEKVVQLNSSFSLRCFGESEVSWQYPMSEEESSDVEIRNEENNSGLFVTVLEVSSASAAHTGLYTCYYNHTQTEENELEGRHIYIYVPDPDVAFVPLGMTDYLVIVEDDDSAIIPCRTTDPETPVTLHNSEGVVPASYDSRQGFNGTFTVGPYICEATVKGKKFQTIPFNVYALKATSELDLEMEALKTVYKSGETIVVTCAVFNNEVVDLQWTYPGEVKGKGITMLEEIKVPSIKLVYTLTVPEATVKDSGDYECAARQATREVKEMKKVTISVHEKGFIEIKPTFSQLEAVNLHEVKHFVVEVRAYPPPRISWLKNNLTLIENLTEITTDVEKIQEIRYRSKLKLIRAKEEDSGHYTIVAQNEDAVKSYTFELLTQVPSSILDLVDDHHGSTGGQTVRCTAEGTPLPDIEWMICKDIKKCNNETSWTILANNVSNIITEIHSRDRSTVEGRVTFAKVEETIAVRCLAKNLLGAENRELKLVAPTLRSELTVAAAVLVLLVIVIISLIVLVVIWKQKPRYEIRWRVIESISPDGHEFIFVDPMQLPYDSRWEFPRDGLVLGRVLGSGAFGKVVEGTAYGLSRSQPVMKVAVKMLKPTARSSEKQALMSELKIMTHLGPHLNIVNLLGACTKSGPIYIITEYCFYGDLVNYLHKNRDSFLSHHPEKPKKELDIFGLNPADESTRSFVILSFENNGDFMDMKQADTTQFVPMLERKEVSKYSDIQRSLYDRPASYKKKSMLDSEVKNLLSDDNSEGLTLLDLLSFTYQVARGMEFLASKNCVHRDLAARNVLLAQGKIVKICDFGLARDIMHDSNYVSKGSTFLPVKWMAPESIFDNLYTTLSDVWSYGILLWEIFSLGGTPYPGMMVDSTFYNKIKSGYRMAKPDHATSEVYEIMVKCWNSEPEKRPSFYHLSEIVENLLPGQYKKSYEKIHLDFLKSDHPAVARMRVDSDNAFIGVTYKNEEDKLKDWEGGLDEQRLSADSGFIIPLPDIDPVPEEEDLGKRNRHSSQTSEESAIETGSSSSTFIKREDETIEDIDMMDDIGIDSSDLVEDSFL
# Columns and labels:
# [1] = system: PI3K (p85); assay: Co-immunoprecipitation of the regulatory subunit of PI3K (p85) with αPDGFR mutants in F cells; assay type: cell-based, mouse; conditions: 50 ng/ml PDGF-BB, 5 minutes
# Method: (§1) The ability of the αPDGFR mutants to undergo ligand dependent tyrosine phosphorylation and to associate with signaling enzymes was then tested. F cells expressing various αPDGFR mutants were grown to subconfluence and serum starved overnight. Cells were either left resting (−) or stimulated with 50 ng/ml PDGF-BB (+) for 5 minutes, and lysed. The αPDGFR was immunoprecipitated with αPDGFR antibody, as described above, and the resulting immunoprecipitates were resolved by 7.5% SDS-PAGE and transferred onto Immobilon. The segment of the blot containing the αPDGFR was first blotted with anti-phosphotyrosine antibodies, then stripped and reprobed with an anti-αPDGFR antibody. Portions of the membrane that contained the proteins of the appropriate molecular mass were immunoblotted for PLCγ, the regulatory subunit of PI3K (p85), or SHP-2. Crude rabbit anti-p85 antibody is from Dr. A. Toker (Beth Israel Hospital/Harvard Medical School, Boston, Mass.). The monoclonal antibodies against PLCγ and SHP-2 were purchased from Upstate Biotechnology Inc.
# [2] = system: SHP-2; assay: Co-immunoprecipitation of SHP-2 with αPDGFR mutants in F cells; assay type: cell-based, mouse; conditions: 50 ng/ml PDGF-BB, 5 minutes
# Method: as §1
# [3] = system: GST-PLCγ; assay: In vitro kinase assay of immunoprecipitated mutant αPDGFRs with exogenous substrate; assay type: biochemical; conditions: 292 immunoprecipitates, [32P]-γ ATP, 30° C., 5 min
# Method: Mutant αPDGFRs were selectively immunoprecipitated with the 292 antibody, and samples representing 2×10^5 cells from 292 antibodies were subjected to an in vitro kinase assay. Immunoprecipitates were preincubated with 2 μg of GST protein for 10 min at 0° C., then 2 μg of Glutathione S-transferase fusion phospholipase C-gamma (GST-PLCγ, an exogenous substrate, 10 μCi of γ-[^32P] ATP (DuPont NEN Research Products, Boston, Mass.), and universal kinase buffer (UKB; 20 mM Pipes, pH 7.0, 10 mM MnCl2, 20 μg/ml aprotinin) were added. The samples were incubated at 30° C. for 5 min. The proteins were separated by 7.5% sodium dodecyl sulfate-polyacrylamide gel electrophoresis (SDS-PAGE), the gel was dried, and the radiolabeled protein was detected by autoradiography.
# [4] = system: rabbit eyes; assay: Rabbit PVR model: F cells expressing αPDGFR mutants injected into the vitreous; assay type: in vivo; conditions: for potential to induce PVR (PVR score): up to 28 days after the surgery
# Method: PVR was induced in the rabbit eyes as previously described (Andrews, A. et al. (1999) Invest. Ophthalmol. Vis. Sci. 40:2683 and Nakagawa, M. et al. (1995) Invest. Ophthalmol. Vis. Sci. 36:2388). Briefly, gas vitrectomy was performed by injecting 0.4 ml of expanding perfluoropropane gas (C3F8) into the vitreous cavity 4 mm posterior to the corneal limbus under anesthetical condition. Three days later, the rabbits were anesthetized and the pupils were dilated. 0.1 ml DMEM containing 1×10^5 of RCFs expressing empty vector or αPDGFR mutant were injected into the vitreous cavity together with 0.1 ml of PRP using 30 G needle. Ten rabbits underwent surgery for each cell population expressing the empty vector or the truncated, E587K, T665M, D818N, or V859M αPDGFR mutants. One rabbit in the D818N group died just after the surgery, therefore the total number is 9 for this group. The retinal status was evaluated with an indirect ophthalmoscope fitted with a +30 D fundus lens at 1, 4, 7, 14, 21, and 28 days after the surgery. The PVR was graded from 0 through 5 according to the Fastenberg score. Fastenberg, D. M. et al. (1982) Am. J. Ophthalmol. 93:565. The grading is as follows: 0; no abnormality, 1; vitreous strand, 2; traction of the retina, 3; partial retinal detachment (less than 2 quadrant), 4; extended (more than 2 quadrant) but not total retinal detachment, 5; total retinal detachment. All surgeries were performed under aseptic conditions and pursuant to the regulation of the ARVO Statement for the Use of Animals in Ophthalmic and Vision Research. Only the left eye of each rabbit was used for the experiments.
# An important component of PVR is the traction force that is generated when cells of the epiretinal membrane contract. To test if the signaling enzymes that are required for contraction in the in vitro assays also participate in PVR, the cells expressing the various αPDGFR mutants, described in the previous Examples, were assayed in a rabbit PVR model, described above. In this model, rabbits first undergo gas vitrectomy, and then cells are coinjected with […]. The formation of an epiretinal membrane and retinal detachment is observed in living animals over 28 days.
# Briefly, PVR was induced by introducing F cells expressing the indicated αPDGFR into the vitreous of the rabbit eyes. The PVR score was evaluated up to 28 days after the surgery according to the classification described above. The mean value and standard error of the scores in a group were indicated. Each group contained 9 or 10 rabbits; the response to parental F cells was previously reported (Andrews et al., supra), and was included here for comparison purposes.
# [5] = system: PLCγ; assay: Co-immunoprecipitation of PLCγ with αPDGFR mutants in F cells; assay type: cell-based, mouse; conditions: 50 ng/ml PDGF-BB, 5 minutes
# Method: as §1
# [6] = system: F cells; assay: Collagen gel contraction assay of F cells expressing αPDGFR mutants; assay type: cell-based, mouse; conditions: PDGF-BB (50 ng/ml), 48 hours
# Method: The contraction assay was based on a previously described reference, Skuta, G. et al. (1999) J. Biol. Chem. 274:30163, with the following modifications. Fα cells were suspended in 1.5 mg/ml of neutralized collagen I (Cohesion vitrogen 100, Palo Alto, Calif.) at a density of 10^6 cells/ml, and were transferred into the 24-well plate (Falcon, Franklyn Lakes, N.J.) that had been preincubated with phosphate-buffer saline (PBS) with 5 mg/ml of bovine serum albumin (BSA) overnight. The gel was solidified by incubating at 37° C. for 90 minutes, and then the well was flooded with DMEM+5 mg/ml of BSA supplemented with an amount of vitreous such that the final concentration of vitreous in the culture medium was 1, 5 or 20%. The gels were incubated at 37° C. with 5% CO2. The initial gel diameter was 15 mm. The media was replaced every 24 hours and the gel diameter was measured after 48 hours. The extent of contraction was calculated by subtracting the diameter of the well at 48 hours from the initial diameter (15 mm). Each experimental condition was assayed in triplicate, and at least three independent experiments were performed. Unpaired t-test was performed to detect statistic difference in contraction assay.
# To determine the signaling pathways that drive contraction, cells expressing the αPDGFR mutants were subjected to the collagen gel contraction assay described above. Accordingly, F cells expressing the indicated αPDGFRs were subjected to the collagen gel assay in the presence of buffer, PDGF-BB (50 ng/ml), TGFβ1 (1 ng/ml), or FBS (10%). The data presented are the mean±standard deviation measured at the 48 hours time point. Each experimental condition was assayed in triplicate, and at least 3 independent experiments were performed.
# [7] = system: PI3K; assay: In vitro PI3K activity assay of αPDGFR immunoprecipitates; assay type: biochemical, mouse; conditions: immunoprecipitates of F cells ± 50 ng/ml PDGF-BB
# Method: To measure the PI3K activity that coprecipitated with the PDGFRs, the receptor immunoprecipitates were subjected to an in vitro PI3K kinase assay. Aliquots of the immunoprecipitates used in FIG. 10B were subjected to a PI3K activity assay. This assay detects PI3K that has co-precipitated with the αPDGFR. The PI3K assay was performed as previously described. Kazlauskas, A. et al. (1990) Embo. J. 9:3279. Briefly, immunoprecipitated αPDGFR from approximately 5×10^5 cells were incubated with phosphatidyl inositol in the presence of [^32P]-γATP. The reactions were terminated and the phospholipids were extracted and purified by chromatography. The radioactive product of the reaction (phosphoinositide 3 phosphate) was detected by autoradiography.
# [8] = system: αPDGFR; assay: Ligand-dependent tyrosine phosphorylation of αPDGFR mutants in F cells; assay type: cell-based, human; conditions: 50 ng/ml PDGF-BB, 5 minutes
# Method: as §1
# [9] = system: αPDGFR; conditions: cited from earlier work
# [10] = system: Src family kinases; conditions: cited from earlier work
Molecule,recruitment of PI3K / p85 (Properties) [1],recruitment of SHP-2 (Properties) [2],kinase activity towards exogenous substrate GST-PLCγ [3],"time until PVR after injection of cells ([4]; rabbit, in vivo)",recruitment or activation of PLCγ (Properties) [5],PDGF-dependent contraction [6],PI3K activity coprecipitating with the receptor [7],PDGF-dependent tyrosine phosphorylation of the receptor [8],potential to induce PVR (PVR score) [4],kinase activity of the receptor (Properties) [9],recruitment or activation of Src family kinases (Properties) [10]
"WT αPDGFR: wild type human αPDGFR, SEQ ID NO: 2, expressed in F cells (Fα cells)",coprecipitated,coprecipitated,phosphorylated the exogenous substrate,2-3 weeks,coprecipitated,contracted,coprecipitated,,,,
"F31/42: αPDGFR mutant, Tyr to Phe substitution at 731 and 742",failed to efficiently associate; also recorded: Fails to recruit PI3K,,,,,did not respond,did not detectably coprecipitate,,,,
"R627: αPDGFR mutant, Lys to Arg substitution at 627, kinase inactive",failed to recruit any of these signaling enzymes,failed to recruit any of these signaling enzymes,,,failed to recruit any of these signaling enzymes,no contraction,,not phosphorylated in response to PDGF,dramatically less able to cause the disease,Kinase inactive,
B1,failed to recruit any of these signaling enzymes; also recorded: Fails to recruit,failed to recruit any of these signaling enzymes; also recorded: Fails to recruit,,,failed to recruit any of these signaling enzymes; also recorded: Fails to recruit,no contraction,,undergoes modest tyrosine phosphorylation,dramatically less able to cause the disease,kinase active,Fails to recruit

# Reference: US6667173B2, “Nucleic acids encoding platelet derived growth factor-alpha receptors” (The Schepens Eye Research Institute, priority 2000, dated 2003)
